The values that follow come from the DeepSol protein solubility set.

The data set in a line: soluble on expression in E. coli; label from the status in PepcDB or PDB records.
On to “MGHHHHHHSHMRSTGSAPSCSGESARAHRRRAGAMSIRSSRTKHSTAQKGAHRRRVSLAGFFNLIYKRQDLGLDFLREMSEPLCTSRPVLLPLNLKNIAPGRCISLTPFGHTDNLGFQCETCTDPNLNKSIPPKLEDPAFSKNELCSVTLTFYQQAEQVIQHKQFYLSLLNLSMDAVRNSLTQPGLLYCYLVTKAFMLEGFPIFFEETNGMLGLYLVFRRDLLHLHESYLRLLIDNLGNYDISVDSVGRSYIIKLCPVGNVSRIPTIPADNVCLAVNNLDYGDDVKASWIECFNIVSRLSQQ”, for which the “soluble on expression in E. coli” value is “not soluble”.

“MENKHNPTSHTSHTWSELPELNPCVPLGTLLPDKSCPKTHPLADLIPPRQQQQFMHGNSWKLAPYGRSMIMRYAMQVRGQLAPTVLGINRTWKGDTCWNQIPKTSDCFHMVYKDHKLYFLNKTGSFKIFDFCGDIPQQTFEWSVKVERSQFGPPPPSNPWKVLATKLVVTVTGKVLKVEEMGGARPRTWSFRVFESMLLDQGITVLANDTGGFIRNTIYFSASHGNNTHDIYIFNLETQKTEPLHTLDSYSSSVQFYGAQWFVPSFKH”: the “soluble on expression in E. coli” value is recorded as “soluble”.

Take “MHEMRELAQGSLKEMRTLIWQLRPAGLEKGLLPALKQYGESLGLKIREQVTGVRDLPRVVEEALWRIGQEALNNVSKHANVREATIYFKVTEKNVSLEIVDQGNGFVEKNIKEKKSLGMTTMRERVELVGGTIKIVSDKKRTSVKVNVPL”: the “soluble on expression in E. coli” value is “not soluble”.

“MFEKQEVEQKKELKILEIIKEAIELGASDIHLTAGAPPAVRIDGYIKFLKDFPRLTPEDTQKLAYSVMSEKHRQKLEENGQVDFSFGVRGVGRFRANVFYQRGSVAAALRSLPAEIPEFKKLGLPDKVLELCHRKMGLILVTGPTGSGKSTTIASMIDYINQTKSYHIITIEDPIEYVFKHKKSIVNQREVGEDTKSFADALRAALREDPDVIFVGEMRDLETVETALRAAETGHLVFGTLHTNTAIDTIHRIVDIFPLNQQEQVRIVLSFILQGIISQRLLPKIGGGRVLAYELLIPNTAIRNLIRENKLQQVYSLMQSGQAETGMQTMNQTLYKLYKQGLITLEDAMEASPDPKELERMIRGGRHHHHHH”: the “soluble on expression in E. coli” value is “soluble”.

Turning to “MSLADSTELTTSATLGAQDAMAFGISEDPAFFQILSANLYSNQKLAMVRETLCNSWDAHIEGNKTDIPIHVTIDKDGFLIFRDYGSGIPKDKIQEVYGVYGASTKKANTASTGGFGLGCKSPMAYTDSFTVTSMCDGTKTVYHIAKSSVETNGKPGIIPIVSVPTEESGLEVKIQLQSEDILEIDSYIRAIVLHGEIKCIYCNQYTGPNTVELLPVLGMSFEPGSYNLDHSTWHKYYMGGHSIFIRYGNVMYPALDTPATHEALKLVKQFMQVINCSRIVVQAAPSSLAVAPSRETLSSQKMTEDGIVNLAVALVDKMEADIKARLPNAIEYIGKAIKEYSPHRFEVNSYLPYTNLVPDVIVSRYMSSTLFSKQYAHLCKKWGNMEIDRQLEHPALAHFSGEGHHHHHH”, the “soluble on expression in E. coli” value is given as “soluble”.

With “MSLSVEQANLILNHLPMEITFVNKEDIFQYYNDNTPADEMIFKRTPSQVGRNVELCHPPKYLDKVKTIMKGLREGSKDKYEMWFKSESRGKFVHITYAAVHDEDGEFQGVLEYVQDIQPYREIDTDYFRGLEEGHHHHHH”, the “soluble on expression in E. coli” value was “soluble”.

Consider “MAHHHHHHMLPSVMDRYESYDFGKELLSLLKTASSTPGAHMGVFTGMGLLLAKYRPEKLLEHVNMHAKKINTHKMIAACEEYHLWLVLRVLHVNNEDWLAAATTMMHHHVDAWDHDVFKTVVSHLGSSDLVYNSISFYIQTNPQLLDDFLTSMFKTLDPERVLLEVKKLAPVHFIRQYLESAQERNSRRVNEAINKLYMEEEDFTALRDSVERFDNFDSAELSAELEKMELFEFRKIALFLHRRNKRFTHAVAVAKENKLYQDAIETAAESANPQIVEDLLDFFVVDHPDCFVACLYTCYDYLTPQVVMEKAWLNKRTDLAMPYFIQVIQDYTTKLSRMEKSMMDAQQLAKEAARRAGPLHTGANDPLMIQAGPANPMGGAMPMPMPMPMPMPMMGGVPPGNYGPPPQFDNRRPY”, for which the “soluble on expression in E. coli” value was “not soluble”.

As to “MGQCLGTLCTVDSATDNISSVYQLAGPVAVKESPRIAERDPKVKISVNPEEENVERPCVLYSKSNEIIKKPDIFEEIYKRTPITLSNNGRIDVAELPAGQRVIEVENNEVRDKYKKTLYEIRRKCRELQNLGAEDEETGEIIDTLLILYKDFFLLTTWKIDKYAQLRKNAAVQAYNSLPKLRADPAEFRCHVEFQYRVANELWEHFKETYIHKYEACNWAERAKVKEWDLLDSQVQTPNVEWDYLGAHGYI”, the “soluble on expression in E. coli” value is given as “not soluble”.

Consider “MGHHHHHHSHMNPLKNIKCTKCPEVFQGVEKLVFHMRAQHFIFMCPRCGKQFNHSSNLNRHMNVHRGVKSHSCGICGKCFTQKSTLHDHLNLHSGARPYRCSYCDVRFAHKPAIRRHLKEQHGKTTAENVL”, for which the “soluble on expression in E. coli” value is “soluble”.

Regarding “MGHHHHHHSHKELQRRRRSLALPGLQGCAELRQKLSLNFHSLCEQQPIGRRLFRDFLATVPTFRKAATFLEDVQNWELAEEGPTKDSALQGLVATCASAPAPGNPQPFLSQAVATKCQAATTEEERVAAVTLAKAEAMAFLQEQPFKDFVTSAFYDKFLQWKLFEMQPVSDKYFTEFRVLGKGGFGEVCAVQVKNTGKMYACKKLDK”, the “soluble on expression in E. coli” value is “soluble”.

Regarding “MGSDKIHHHHHHMSKTLKEITDQKNELKKFFENFVLNLEKTEIFSEIQKNLTDEVLFVGCGSSYNLALTISYYFERVLKIRTKAIPAGEVAFQKIPDLEERGLAFLFSRTGNTTEVLLANDVLKKRNHRTIGITIEEESRLAKESDLPLVFPVREEAIVMTKSFSMILLSLMFLADKIAGNSTERFSELVGYSPEFFDISWKVIEKIDLKEHDHFVFLGMSEFFGVSLESALKCIEMSLTFSEAYSTLEYRHGPKALVKKGTLVFMQKVSGMDEQEKRLRKELESLGATVLEVGEGGDIPVSNDWKSAFLRTVPAQILGYQKAISRGISPDKPPHLEKTVVL”, the “soluble on expression in E. coli” value was “soluble”.

In the case of “MADIVVDGIRATYNIRGESAALLCPPHPLMGGSRFDVRLERIAAELTKRNVSVLRFDYQRPFRSGIGEVEDAKKCVAYLKDRHDKIAVIRYSFGSVVASNVAEYCDAAVYISPLPEINSIYFKDAEIPKLFIIATRDQFVSLEESVKLYEQASKPKEVVKVETDHFYFGKFDFIAKITADFIERQSF”, the “soluble on expression in E. coli” value was “soluble”.

Take “MSLSNAEITHREGVKMLVVRPISMADYEALHTCAVESGHGFTSLPVDQELLTNRITHSEYSFSKPNVTMPGDEGYLMVGVDTETGQVAGTTGIEASIGWDVPFYSYHISTIVHSSPKLGVNNVVKLLTFGNNYTGCSEICTLFLRPQYRQGLNGRLMSKCRFLMMAEHSHRFSKTIFAEMRGVSDADGNSPFWKWLQEHFFSIDFTLADYLTGIGKKGFIADLMPKLPIYVNLLSKEAQAVIGQVHENTRPALVLLEKEGFTCRNYVDIFDAGPTVECELNNIESVRHSVRAIVEVAEHSSSQNFIMCNTSFENFRATAAKAAYSQEDNAVIISPKVAAALEVSTGDYLRILAQEGHHHHHH”: the “soluble on expression in E. coli” value was “soluble”.

Regarding “MGSDKIHHHHHHMAAVLLTGHGGPEKLVYRTDVKVPSPDPGEVLVEVSACGMNNTDVWVRQGAYGTEEDAAAVSTWRRQGNTLVFPRIQGTDTVGTIVSVGEGVSPERIGERVMVDFSIYNRDDDSLADIDYMGHGRDGGYAEYQTVPAENAHVVDTDMSDVELATFCCAYLTGEQMLERAGLKAGERVLVTGASGGVGSGIVQLARARGAIPYAVVGKGKEQAVLDIGAEAVITRGVADLPRAVAEVTGGQPIDVVADLVGGAIFNDLLRILRPEGRYTTAGAIAGPVVQLDLRTMYLKQLQLHGSSQGTRADFRRIVGYIEAKKIRPLVGGVYRLSDFHRAQADFVAKDFVGKLVVVPDAIAERQA”, the “soluble on expression in E. coli” value is on record as “not soluble”.

With “MAIKFQYNKTSLQQQEKQLKMRERTLPTIKSKESALRLEVKRTKDEVERLERQLEEEIVGYRSMVSLWNEFKPDLISVEGVKLSAKKVAGVVVPVLDDISYTIKPFSLFNAPSWFAEGIDLLKNLAHTGIEAEFLGLKLEFLEYARKKTTQKVNLFEKVQIPGYKDAIRKIKRYLEDEESLSKSSQKIMRANMEKRNKGEEVMA”, the “soluble on expression in E. coli” value was “not soluble”.

Turning to “MAHHHHHHMHACVAAIAMGEVGVYDDQRSSGQEISLAAAAAAGVQYARSSRTAFSCTSKSARQGGGGAVPIENLLPPLIEQPEKSLRAARGDTGAAITEDERAAIAMETWEHYMATAREATSAEGASMMPSATAAATMMSSASCANAAHSCTSAVAAEAPLVPIRSFPDALCALIERCTATPLVCLTLSDQQCQTTAVRDLLRALLTIMQRIEDSAVAAIDCEIALASHSSSSGHHTPVAATAALDLQAVRLAAVKGISRVLTTYLDGADGSAQPPTKASETFTAGLGHLDILSVFEDVVHQWAHVLTVLERGKELIGASAGVGKGSDVKAEDDLSGVPESPQGHRSGKDGTGAAAQLHWVLRIAYQIIAAEQREASRGSAEAAPRVRLLPPLLVPVALRTLSLITTVIPLVCRPASYVQLCVDVLWGASLLTPSESSRQLMYGSMGVAGLAGASNGSCEGEADVSRGAEASPPAMDLFLALLHQFNEGHSAAHRELRDDLVCLFAFLLRCDIQYVENKLVAQSCRAEWSPTNVFGVNSAVSPPPRLRSKLTPRRSISTSPLWRRSTLWRRCCSRQRAGPNSQRRCTRPQPQPQRRFSPPTSIEANLLR”, the “soluble on expression in E. coli” value is reported as “not soluble”.

In the case of “MDRLDRKILRILQEDSTLAVADLAKKVGLSTTPCWRRIQKMEEDGVIRRRVALLDPVKVNTKVTVFVSIRTASHSIEWLKRFSEVVSEFPEVVEFYRMSGDVDYLLRVVVPDIAAYDAFYKRMIAKIEIRDVSSAFAMEQIKYTTELPLDYMLLDNPKSGEE”, the “soluble on expression in E. coli” value is “soluble”.

“MHHHHHHSSGVDLGTENLYFQSMDLRVQELIKLICNVQAMEEMMMEMKYNTKKAPLGKLTVAQIKAGYQSLKKIEDCIRAGQHGRALMEACNEFYTRIPHDFGLRTPPLIRTQKELSEKIQLLEALGDIEIAIKLVKTELQSPEHPLDQHYRNLHCALRPLDHESYEFKVISQYLQSTHAPTHSDYTMTLLDLFEVEKDGEKEAFREDLHNRMLLWHGSRMSNWVGILSHGLRIAHPEAPITGYMFGKGIYFADMSSKSANYCFASRLKNTGLLLLSEVALGQCNELLEANPKAEGLLQGKHSTKGLGKMAPSSAHFVTLNGSTVPLGPASDTGILNPDGYTLNYNEYIVYNPNQVRMRYLLKVQFNF”: the “soluble on expression in E. coli” value is reported as “soluble”.

For the sequence “SEKKECPEKSSSSEEELPRRDSGSSRNIDASKLIRLQGSRKLLVDNSIRELQYTKTGIFFQAEACVTNDTVYRELPCVSETLCDISHFFQEDDETEAEPLLFRAVPECQLSGGDIPSVSEEQESSEGQDSGDICSEENQIVSSYASKVCFEIEEDYKNRQFLGPEGNVDVELIDKSTNRYSVWFPTAGWYLWSATGLGFLVRDEVTVTIAFGSWSQHLALDLQHHEQWLVGGPLFDVTAEPEEAVAEIHLPHSISLQAGEVDVSWFLVAHFKNEGMVLEHPARVEPFYAVLESPSFSLMGILLRIASGTRLSIPITSNTLIYYHPHPEDIKFHLYLVPSDALLTKAIDDEEDRFHGVRLQTSPPMEPLNFGSSYIVSNSANLKVMPKWISSL”, the “soluble on expression in E. coli” value is “soluble”.

Turning to “GKDAHVILRSNFTLSKNKILNWEDTKKPYTYLENNGYANNVQRGFVAMGLFKDQQDVEMSPTQFGTVRPGDIKYRDINGDGKITDDDKVPLFAYSGVPQLMYGIGAEFRYKSWTLNVLFKGTGRNKFLYGGSDGRNFDGYMPFNQKDKGNIMTIAYNPENRWISAEYSGNQATENPNARFPRLYYGKNENNTKPSTFWMGDARYLRLQELSLAYNLKVPALQRILGINSMNIQLMCENLAVWDSVNIFDPEQATSCGQAYPLPARYSLQLYLNF”, the “soluble on expression in E. coli” value is “not soluble”.
